Reference: the Human Domainome abundance scans (Beltran et al. 2025)
± gives the uncertainty stated by the source.

B1: Ankyrin-3, residues 4094 to 4171; numbered along this chain, Q12955 (parent)
chain: MAIVADHLGLSWTELARELNFSVDEINQIRVENPNSLISQSFMLLKKWVTRDGKNATTDALTSVLTKINRIDIVTLLE

Variants of: B1
Assay: abundance fitness (aPCA) (normalised: wild type 0, dead -1); higher = more abundant; growth selection in yeast, the domain comes from the species named
Conditions: Homo sapiens

Variant	abundance fitness
F21E	-0.997 ± 0.2
F21C	-1 ± 0.29
F21T	-0.869 ± 0.32
F21Y	-0.358 ± 0.18
F21D	-0.949 ± 0.34
F21G	-0.7 ± 0.082
F21Q	-0.694 ± 0.2
F21A	-0.842 ± 0.14
F21M	-0.561 ± 0.14
F21N	-0.57 ± 0.22
W12V	-0.753 ± 0.11
W12Q	-0.534 ± 0.3
W12S	-0.968 ± 0.15
W12R	-0.844 ± 0.12
W12M	-0.844 ± 0.25
W12C	-0.931 ± 0.28
W12P	-0.433 ± 0.11
W12L	-0.838 ± 0.11
W12T	-1.1 ± 0.43
W12E	-0.903 ± 0.2
W12I	-0.738 ± 0.26
W12A	-0.862 ± 0.16
E18K	-0.532 ± 0.3
E18Y	-0.605 ± 0.17

Variant	abundance fitness
E18R	-1.09 ± 0.21
E18I	-0.721 ± 0.22
E18W	-0.825 ± 0.16
E18S	-0.625 ± 0.095
E18C	-0.531 ± 0.12
E18D	-0.614 ± 0.3
E18M	-0.339 ± 0.16
E18F	-0.451 ± 0.13
E18H	-0.317 ± 0.15
E18Q	-0.388 ± 0.18
E18V	-0.148 ± 0.053
E18T	-0.427 ± 0.17
E18G	-0.455 ± 0.053
E18A	-0.187 ± 0.053
Q28C	-0.318 ± 0.19
Q28D	0.044 ± 0.21
Q28A	0.044 ± 0.054
R17N	0.231 ± 0.2
R17V	-0.161 ± 0.059
R17I	-0.412 ± 0.3
R17H	-0.182 ± 0.13
R17K	0.143 ± 0.083
R17G	-0.163 ± 0.058
R17C	-0.076 ± 0.12

Variant	abundance fitness
R17Y	-0.061 ± 0.092
R17S	-0.08 ± 0.04
R17T	-0.037 ± 0.063
R17D	-0.203 ± 0.13
R17Q	-0.273 ± 0.12
R17E	-0.074 ± 0.1
R17F	-0.108 ± 0.15
R17A	-0.033 ± 0.068
R17L	-0.06 ± 0.051
R17W	-0.101 ± 0.1
R17P	-0.869 ± 0.27
R17M	-0.053 ± 0.099
S22C	0.048 ± 0.5
S22Y	-0.646 ± 0.37
G9M	-0.244 ± 0.11
G9Y	-0.924 ± 0.39
G9D	-0.503 ± 0.17
G9E	-0.273 ± 0.074
G9C	-0.781 ± 0.14
G9H	-0.667 ± 0.37
G9W	-0.786 ± 0.17
G9A	-0.499 ± 0.074
G9T	-1 ± 0.29
G9V	-0.551 ± 0.11

Variant	abundance fitness
G9P	-0.868 ± 0.12
G9S	-0.535 ± 0.081
G9Q	-0.39 ± 0.099
G9N	-0.047 ± 0.16
L19I	-0.333 ± 0.14
L19G	-1.01 ± 0.15
L19W	-0.494 ± 0.078
L19R	-0.79 ± 0.094
L19V	-0.651 ± 0.1
L19P	-0.855 ± 0.12
L19M	-0.33 ± 0.14
L19Q	-0.781 ± 0.22
L19C	-0.793 ± 0.23
L19S	-1.05 ± 0.18
L19H	-0.694 ± 0.25
L19A	-0.591 ± 0.089
L19T	-0.927 ± 0.28
D6L	-0.352 ± 0.063
D6R	-0.163 ± 0.048
D6G	-0.156 ± 0.05
D6K	0.155 ± 0.038
D6Y	-0.342 ± 0.12
D6W	-0.517 ± 0.079
D6N	-0.067 ± 0.3

Variant	abundance fitness
D6I	-0.755 ± 0.42
D6M	-0.299 ± 0.17
D6V	-0.296 ± 0.07
D6F	-0.658 ± 0.36
D6S	-0.258 ± 0.063
D6C	-0.418 ± 0.14
D6P	-0.238 ± 0.078
D6A	-0.25 ± 0.069
D6E	0.096 ± 0.069
N27T	-0.174 ± 0.075
N27A	-0.082 ± 0.067
N27S	-0.125 ± 0.06
N27E	-0.191 ± 0.13
N27Y	-0.149 ± 0.14
N27V	-0.373 ± 0.065
N27W	-0.35 ± 0.097
N27Q	0.012 ± 0.085
N27L	-0.383 ± 0.054
N27R	-0.11 ± 0.044
N27F	-0.244 ± 0.08
N27K	-0.112 ± 0.11
N27P	-0.926 ± 0.39
N27G	-0.798 ± 0.1
N27D	-0.272 ± 0.12

Variant	abundance fitness
N27H	-0.06 ± 0.12
N27C	-0.238 ± 0.099
E14P	-0.583 ± 0.09
E14T	-0.198 ± 0.086
E14Y	-0.432 ± 0.15
E14M	-0.185 ± 0.094
E14W	-0.469 ± 0.14
E14L	-0.306 ± 0.065
E14I	-0.278 ± 0.14
E14R	-0.289 ± 0.05
E14S	-0.098 ± 0.057
E14D	-0.074 ± 0.085
E14A	-0.082 ± 0.068
E14V	-0.02 ± 0.057
E14Q	-0.02 ± 0.056
E14C	-0.23 ± 0.14
E14K	-0.347 ± 0.15
E14G	-0.426 ± 0.063
E14H	-0.156 ± 0.12
A16R	-0.893 ± 0.17
A16S	-0.907 ± 0.14
A16L	-0.996 ± 0.15
A16N	-0.793 ± 0.23
A16P	-0.895 ± 0.13

Variant	abundance fitness
A16W	-0.79 ± 0.2
A16T	-0.841 ± 0.21
A16V	-0.531 ± 0.1
A16H	-0.601 ± 0.28
A16D	-0.813 ± 0.31
A16Q	-0.749 ± 0.17
A16G	-0.257 ± 0.052
T13P	0.101 ± 0.058
T13Q	-0.201 ± 0.11
T13H	-0.178 ± 0.11
T13L	-0.104 ± 0.049
T13V	-0.041 ± 0.055
T13N	-0.309 ± 0.19
T13C	-0.546 ± 0.14
T13I	-0.02 ± 0.1
T13E	0.005 ± 0.084
T13G	-0.417 ± 0.062
T13M	-0.054 ± 0.071
T13S	-0.078 ± 0.057
T13K	-0.554 ± 0.21
T13D	-0.35 ± 0.18
T13W	-0.707 ± 0.1
T13A	-0.153 ± 0.064
